{"source": "the nanobody polyreactivity screen of Harvey et al. (2022)", "data": [{"test": "yeast display, Sf9 membrane polyspecificity reagent, FACS + sequencing; frameworks hold sequencing errors", "procedure,_shortened": "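After 36–48 hours of galactose induction, yeast (Saccharomyces cerevisiae BJ5465) displaying a synthetic nanobody library were stained at 4 °C for 1 hour with 10% biotinylated, detergent-solubilized Sf9 membrane reagent. Streptavidin microbeads enriched the stained cells before FACS sorting into low and high (top ~1%) gates on anti-HA and streptavidin fluorescence. Each clone's polyreactivity label reflects its gate of origin.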", "values": [{"sequence": "QVQLVESGGGLVQAGGSLRFSCAASGFIFIFYAMGWYRQAPGKERELVAGISWSSSSTYYADSVKRRFSISRDNAKNTVYLQMNRLKPEDTAVYYCAKDGLSVSGEYDYWGQGTQVTVSS", "polyreactivity (PSR sort gate)": "low polyreactivity"}, {"sequence": "QDQLVESGGGLVQAGGSLRLSCAASGLTFPYYAMGWYRQAPGKERELVAAITWSGGTTDYADSVKGRFTISRDNAKNTVYLQMNSLKPEDTAVYYCAARFLWKGYYWGQGTQVTVSS", "polyreactivity (PSR sort gate)": "low polyreactivity"}, {"sequence": "QVQLEQSGGGLVQAGGSLRLSCAASGRTFVSNAMGWYRQAPGKERELVADITSGGSTDYADSVKGRFTISRDNANNTVYLQMNSLKPEDTAVYYCATDLWRWYGWFDYWGQGTQVTVSS", "polyreactivity (PSR sort gate)": "low polyreactivity"}, {"sequence": "QVQLEESGGGLVQAGGSLRLSCAASGITFRYYAMGWYRQAPGKEWELVAAITRSGSSTFYADSVKGRFTISRDNAKNTVYLQMNSLKPEDSAVYYCAAESVRAVFPDRYKYWGQGTQVTVSS", "polyreactivity (PSR sort gate)": "high polyreactivity"}, {"sequence": "QVQLVESGGGLVQAGGSLRLSCAASGFIFYSNAMGWYRQAPGKERELVAAIRSTGSTSYADSVKGRFTISRDNAKNTVYLQMNSLKPEDTAVYYCAKVRYWRGYDYWGQGTQVTVSS", "polyreactivity (PSR sort gate)": "high polyreactivity"}, {"sequence": "QVHLVDSGGGLVQAGGSLRLSCAASGRTFQVYTMGWSRQAPGKERELVAAITWNGGRTRYADSVKGRFTISRDNAKNTVYLQMTSLKPEDTAVYYCNAGNWITARAGFNDWGQGTQVTVSS", "polyreactivity (PSR sort gate)": "high polyreactivity"}, {"sequence": "QVQLVESGGGLVQAGGSLRLSCAASGRTFAYYTMGWYRQAPGKERELVAAISWIGGSTYYADSVKGRFTISRDNAKNTVYLQMNSLKPEDTAVYYCNAVGLHWWPGDYWGQGTQVTVSS", "polyreactivity (PSR sort gate)": "low polyreactivity"}, {"sequence": "QVQLVESGGGLVQAGGSLRLSCAASGSTFLTNAMGWYRQAPGKERELVAAIRWRGGDTRYADSVKGRFTISRDNAKNTVYLQMNSLKPEDTAVYYCAAQYRKTQYQKKYDYWGQGTQVTVSS", "polyreactivity (PSR sort gate)": "high polyreactivity"}, {"sequence": "QVQLVESGGGLVQAGGSLRLSCAASGRIFHYYMGWYRQAPGKERELVAVISSGDGTYYADSVKGRFTISRDNAKYTVYLQMNSLKPEDTAVYYCAADAPREYVDHYKYDDDYWGQGTQVTVSS", "polyreactivity (PSR sort gate)": "low polyreactivity"}, {"sequence": "QVQLVESGGGLVQAGGSLRLSCASSGITFDKYAMGWYRQAPGKERELVAAINRSGGSTYYADSVKGRFTISRDNAKNTVYLQINSLKPEDTAVYYCAAVKPPDYYYWGQGTQVTVSS", "polyreactivity (PSR sort gate)": "high polyreactivity"}, {"sequence": "QVQLVESGGGLVQAGGSLRLSCAASGSTFYVNAMGSYRQAPGQERELVAAIRSSAGNTTYADSVKGRFTISRDNAKNTVYLQMNSLKPEETAVYYCAADSRPYLRDYWGQGTQVTVSS", "polyreactivity (PSR sort gate)": "low polyreactivity"}, {"sequence": "QVQLVESGGGLVQAGGSLRLRCAASGSTLYIYAMGWYRQAPGKERELVAAITSSTGSTYADSVKGRFTISRDNAKNTVYLQMNSLKPEDTAVYYCNAGGPLQPYDYWGQGTQVTVSS", "polyreactivity (PSR sort gate)": "low polyreactivity"}, {"sequence": "QVQLVESGGGLVQAGGSLRLSCAASGITFKAYAMGWYRQAPGKDRELVAAINTSGARTYYADSVKGRFTISRDNAKNTVYLQMNSLKPEDTAVYYCNARLHQQEGDYWGQGTQVTVSS", "polyreactivity (PSR sort gate)": "low polyreactivity"}, {"sequence": "QVQLVESGGGLVQAGGSLRLSCASSGSTFPSNAMGWYRQAPGKERELVAAISRSGGSTYYADSVKGRFTISRDTAKNTVYLQMNSLKPEDTAVYYCAVQVRPNSGGTRIHRCGYDYWGQGTQVTVSS", "polyreactivity (PSR sort gate)": "low polyreactivity"}, {"sequence": "QVQLVESGGGLVQAGGSLRLSCDASGSIFRGNAMGWYRQAPGKERELVATITNGGSTNYADSVKGRFTISRDNAKNTVYLQMNSLKPEDTAVYYCNADHSYHIASTRHVDYWGQGTQVTVSS", "polyreactivity (PSR sort gate)": "low polyreactivity"}, {"sequence": "QVQLVESGGGLVQAGGSLRLSCAASGSTFQTYAMGWYRQAPGKERELVAAITSGGSTNYADSVNGRFTISRDNAKNTVYLQMNSLKPEDTAVYYCAGRQIYQTSEHRLQYDYWGQGTQVTVSS", "polyreactivity (PSR sort gate)": "low polyreactivity"}, {"sequence": "QVQLVESGGGLVQAGGSLRLRCAASGRIFYFNAMGWYRQAPGKEREFVASINSIGDSTYYADSVKGRFTISRDTAKNTVYLQMNSLKPEDTAVYYCNADHGVINYRLDYWGQGTQVTVSS", "polyreactivity (PSR sort gate)": "low polyreactivity"}, {"sequence": "QVQLVESGGGLVQAGGSLRLSCAASRRTFIANAMGWYRQAPGNGREWVAVITLNGGSTYYADSVKRRFTLSRDNAKNTVYLQMNSLKPEDTAVYYCAADVYWDYYWGQGTQVTVSS", "polyreactivity (PSR sort gate)": "low polyreactivity"}, {"sequence": "QVQLVESGGGLVQAGGSLRLSCAASGFSFEGYAMGWYRQAPGKERELVAAISSNGGRTYYADSVKGRFTISRDNAKNTVYVLMNSLKPEDTAVYYCNARRAYSGPDYDYYHGRRYDYWGQGTQVSVSS", "polyreactivity (PSR sort gate)": "low polyreactivity"}, {"sequence": "QVQLVESGGGLVQAGGSLRLSCAASGFTFIKYAMGWYRQAPGKEREFVATISWNGGNTYYADSVKGRFTISRDNAKNTVYLQMNSLKPEDTAVYYCAARVKYRTRGGTVVSYDYWGQGTQVTVSS", "polyreactivity (PSR sort gate)": "high polyreactivity"}, {"sequence": "QVQLVESGGGLVQAGGSLRLSCAASGLIFRYNAMGWYRQAPGKERELVASITSDGSTNYADSVKGRFTISRDNAKNTVYLQMNSLKPEDTAVYYCAADGYTYCYYQLIPDYDYWGQGTQVTVSS", "polyreactivity (PSR sort gate)": "low polyreactivity"}, {"sequence": "QVQLVESGGGLVQARGSLRLSCAASGRTFRYYTMGWYRQAPGKEREFVAAITFRGGSTYYADSVKGRFTISRDNAKNTVYLQMNSLKPEDTAVYYCAAVGRYSRYPYSDTYGYWGQGTQVTVSS", "polyreactivity (PSR sort gate)": "high polyreactivity"}, {"sequence": "QVQLVESGGGLVQAGGSLRLICDASGRTFTDNAMGLYRQAPGKERELVAAISSSGDFYAESVKGRFTISRDNAQNTVYLQMNSLKPEDTAVYYCAARVWRYYYQSRFYYWGQGTQVTVSS", "polyreactivity (PSR sort gate)": "high polyreactivity"}, {"sequence": "QVQLVESGGGLVQAGGSLRLSCAASGRIFVGYAMGWYRQAPGKEREFVAAITIGGTDTYYADSVKGRFTISRDNAKNTVYLQMNSLKPEDTAVYYCNADLLYPYDFDYWGQGTQVTVSS", "polyreactivity (PSR sort gate)": "low polyreactivity"}, {"sequence": "QVQLVESGGGLVQAGGSLRLSCAASGRILYYYDMGWYRQAPGKERELVARIGGTYYADSVKGRFTISRDNAKNTVYLQMNSLKPEDTAVYYCAAEYGYDFFRSYQEYGYWGQGTQVTVSS", "polyreactivity (PSR sort gate)": "low polyreactivity"}, {"sequence": "QVQLVESGGGLDQAGGSLRLSCAASGRTFGTYVMGWSRQAPGKERELVAAITGSGGSTYYADSVKGRFTISRDIAKNSVYLQMNSLKPEDTAVYYCSAKYRRPRYGFWGQGTQVTVSS", "polyreactivity (PSR sort gate)": "high polyreactivity"}, {"sequence": "QVHLVESGGGLVQAGGSLRLSCAASGSTSYVYAMGWYRKAPGKERELVAAISGSGGRTYYADSVKGRFTISRDNAKNTVYLQMNSLKPEDTAVYYCNALPRPSYPFDYWGQGTQVTVSS", "polyreactivity (PSR sort gate)": "high polyreactivity"}, {"sequence": "QVQLVESGGGLVQAGGSLRLSCAASGSTFTFNAMGWYRQAPGKERELVAAITSRGGSTYYADSVKGRFTISRDNAKNTVYLQMNSLKPEDTAVYYCAATLRGQKTRREYWGQGTQVTVSS", "polyreactivity (PSR sort gate)": "high polyreactivity"}, {"sequence": "QVQLVESGGGLVQAGGSLRLSCAASGRNFRRYALGLYRQAPGKERELVAAISSGGSTYYADSVKGRFTISRDNAKNTVYLQMNSLKPEDTAVYYCNAKVGAYLNYGYWGQGTQVTVSS", "polyreactivity (PSR sort gate)": "low polyreactivity"}, {"sequence": "QVQLVESGGGLVQAGGSLRLSCADSGSTITYYTMGWYRQAPGKERDLVAAISGSGGRTYYADSVKGRFTISRDNAKNTVYLQMNSLKPEDTAVYYCAAGYQLSRYDYWGQGTQVTVSS", "polyreactivity (PSR sort gate)": "high polyreactivity"}, {"sequence": "QVQLVESGGCLVQAGGSLRLSCAASGSILRYYAMGWYRQAPGKERELVAAISRGGSTYYADSVKGRFTISRDNAKNTVYLQMNSLKPEDTAVYYCARLPLRYYFGYDYWGQGTQVTVSS", "polyreactivity (PSR sort gate)": "high polyreactivity"}, {"sequence": "QVQLVESGGGLVQAGASLRLSCAASGSIFSWYTMGWYRQAPGKERELVARITTSGGTTLYADSVKGRFTISRDNAKNTVYFQMNSLKPEDTAVYYCAADRSPYWRGYVRYNYWGQGTQVTVSS", "polyreactivity (PSR sort gate)": "high polyreactivity"}]}]}
